Columns and labels:
human α-thrombin (human) [1] = molecular target: human α-thrombin (human) (UniProt P00734); experiment: kinetics of thrombin inactivation
human α-thrombin (human) [2] = molecular target: human α-thrombin (human) (UniProt P00734)

| Substance | K (TDS,HCII), dissociation constant of ternary complex formation with DS (human α-thrombin (human) [1]) [µM] | second-order rate constant of uncatalyzed thrombin inactivation (no GAG) (human α-thrombin (human) [2]) [M⁻¹ s⁻¹] | K (TH,HCII), dissociation constant of ternary complex formation with heparin (human α-thrombin (human) [1]) [µM] |
| --- | --- | --- | --- |
| native plasma heparin cofactor II (from UniProt P05546 20-499) (natural protein) | 0.022 |  |  |
| deglycosylated plasma heparin cofactor II (from UniProt P05546 20-499) (natural protein) |  | 420 | 0.018 |

Source: paper PMC2952836
